Results on one substance are retold here after paper PMC10037447.

“And” between values parts separate entries of the source, which are not always exact repeats. Identical values can stand only once.

The experiment concerns the target F-type ATP synthase from bovine heart mitochondria (Bos taurus (purified from bovine heart)). Briefly: native gel or EMSA; Blue-Native PAGE (3-12% Bis-Tris mini-gels) of F-type ATP synthase re-extracted with 0.5% LMNG from LAiR proteoliposomes (bovine heart lipids) at time points over 5 days of storage on ice at 4 °C. (In EMSA bound probe runs differently from free probe, usually more slowly.)

By stoichiometry N is commonly meant the number of molecules, sites or subunits per partner or assembly. For “F-type ATP synthase from bovine heart mitochondria (complex)”, the stoichiometry N is 2 and 4.
